Positions count from the first letter of the chain named. In names and notes the source's numbering stands.

In assay [1] the target is 6G11 (BI‐1206), full‐length antibody containing the PGLALA Fc mutations (human). As to the kind of experiment: ELISA; 6G11 coated (5 µg/mL, MaxiSorp, overnight 4°C); scFv 500 to 0.19 nM, 1 h RT; detection with StrepTactin-HRP.
Assay [2] shares this target. Description: BLI; 6G11 (5 µg/mL) loaded on Protein A tips; original or mutated S2B scFv 500-7.8 nM in 1:2 dilutions; association and dissociation 180 s each.

Chain of 6G11 (BI‐1206), full‐length antibody containing the PGLALA Fc mutations (human) (heavy, as listed by the source, chain 1 of 2): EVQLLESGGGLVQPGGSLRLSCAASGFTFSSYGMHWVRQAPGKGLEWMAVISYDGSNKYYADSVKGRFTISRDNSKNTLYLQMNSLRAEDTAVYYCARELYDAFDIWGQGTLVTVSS
Chain of 6G11 (BI‐1206), full‐length antibody containing the PGLALA Fc mutations (human) (light, as listed by the source, chain 2 of 2): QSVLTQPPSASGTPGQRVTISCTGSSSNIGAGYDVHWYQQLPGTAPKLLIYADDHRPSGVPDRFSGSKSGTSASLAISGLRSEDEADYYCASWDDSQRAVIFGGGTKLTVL

B1: S2N scFv (non‐blocking anti‐6G11 scFv clone 2), solitary (scFv, V domains shown)
VH: AVTLDESGGGLQTPGGGLSLVCKASGFSFSDRGMQWVRQAPGKGLEWVAGIDDDDNNTWYATAVKGRATISRDNGQSTVRLQLNSLRAEDTGTYYCAKTPTSYYWGAAEIDAWGHGTEVIV
VL: ALTQPSSVSANPGETVKITCSGSSGSYGWYQQKAPGSAPVTVIYDNNNRPSNIPSRFSGSLSGSTNTLTITGVQADDEAVYFCGSYEGSSYVGIFGAGTTLTVL
On to B1, for which the concentration giving a half-maximal response (EC50) in assay [1] worked out at 3.9 nM.

B2: S2B R101A scFv, solitary (scFv, V domains shown)
VH: AVTLDESGGGLQTPGGGLSLVCKASGFTFSSYSMVWVRQAPSKRLEWVAGIYSSATWTYYAPAVKGRATISRDNGQSTVRLQLNDLRAEDTGTYFCAKTSASGWTAYSASAIDAWGHGTEVIV
VL: ALTQPSSVSANPGETVKITCSGGSSYYGWYQQKSPGSAPVTVIYSNDKRPSDIPSRFSGSTSGSTATLTITGVQADDEAVYFCGGYDSNIHGGIFGAGTTLTVL
B2: the fold decrease in affinity against the original S2B in assay [2] came to 6 fold.

B3: S2B Y52A scFv, solitary (scFv, V domains shown)
VH: B2 VH with Y52A, A101R
VL: B2 VL
B3: the fold decrease in binding against the original S2B in assay [2] is 4 fold.

B4: S2B scFv (blocking anti‐6G11 scFv clone 2), solitary (scFv, V domains shown)
VH: B2 VH with A101R
VL: B2 VL
In the case of B4, in assay [1], the EC50 stood at 28.7 nM.

B5: S2B W104A scFv, solitary (scFv, V domains shown)
VH: B2 VH with A101R, W104A
VL: B2 VL
As for B5, in assay [2], the fold decrease in affinity against the original S2B was found to be 10 fold.
